Among the data in publication PMC5349596 are pKa values, retold here.

This data set concerns the target Asp74 (UniProt position 74, WARYIDWVITT). The data set is described as follows: UV-vis. As to conditions: room temperature (approx. 25 °C); not stated (no added salt; low-millimolar buffer mixture; pH adjusted with concentrated H2SO4); 0.89 mM citric acid, 0.89 mM MES, 1.1 mM TES, 0.78 mM TAPS, 1.1 mM CHES and 0.33 mM CAPS; Folded, retinal-bound (nearly 100% all-trans), detergent-solubilised; dark or light adaptation during the titration not stated.

Regarding “Rubrobacter xylanophilus rhodopsin (RxR) (Rubrobacter xylanophilus DSM 9941)”, the pKa is 1.3 ± 0.17.

The pKa is the pH at which an ionisable group is half protonated.
